Assays:
[1] = molecular target: CPSF6_(313–327) peptide (cleavage and polyadenylation specific factor 6, residues 313–327) (UniProt Q16630-2 313-327, N-terminal His tag omitted; strain not given, isolate Petaluma taken; CA residues 1-139 by alignment to HIV-1 CA 1-146); test: ITC
[2] = molecular target: CPSF6_(313–327) peptide (cleavage and polyadenylation specific factor 6, residues 313–327) (UniProt Q16630-2 313-327); test: ITC

Binder	Kd [1]	Kd [2]
FIV CA N-terminal domain (CA^N) (domain or fragment) PIQTVNGVPQYVALDPKMVSIFMEKAREGLGGEEVQLWFTAFSANLTPTDMATLIMAAPGCAADKEILDESLKQLTAEYDRTHPPDAPRPLPYFTAAEIMGIGLTQEQQAEARFAPARMQCRAWYLEALGKLAAIKAKS	242 µM	
HIV-2 CA N-terminal domain (CA^N) (domain or fragment) not shown		350 µM

From publication PMC3431306 (2012)
